From article PMC9250508 (Nature Communications, 2022)

B1: AZD8895 Fab (Fab, V domains shown)
VH: QMQLVQSGPEVKKPGTSVKVSCKASGFTFMSSAVQWVRQARGQRLEWIGWIVIGSGNTNYAQKFQERVTITRDMSTSTAYMELSSLRSEDTAVYYCAAPYCSSISCNDGFDIWGQGTMVTVSS
VL: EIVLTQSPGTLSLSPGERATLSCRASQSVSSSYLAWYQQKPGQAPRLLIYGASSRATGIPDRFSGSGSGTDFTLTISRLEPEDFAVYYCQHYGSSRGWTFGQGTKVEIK
notes: also called tixagevimab; COV2-2196
B2: VIR-7831 (the clinical form of S309-LS) (antibody, V domains shown)
VH: not shown
VL: EIVLTQSPGTLSLSPGERATLSCRASQTVSSTSLAWYQQKPGQAPRLLIYGASSRATGIPDRFSGSGSGTDFTLTISRLEPEDFAVYYCQQHDTSLTFGGGTKVEIK
notes: also called sotrovimab; clinical lead variant of S309-LS; copies: 2 + 2
B3: AZD1061 Fab (Fab, V domains shown)
VH: EVQLVESGGGLVKPGGSLRLSCAASGFTFRDVWMSWVRQAPGKGLEWVGRIKSKIDGGTTDYAAPVKGRFTISRDDSKNTLYLQMNSLKTEDTAVYYCTTAGSYYYDTVGPGLPEGKFDYWGQGTLVTVSS
VL: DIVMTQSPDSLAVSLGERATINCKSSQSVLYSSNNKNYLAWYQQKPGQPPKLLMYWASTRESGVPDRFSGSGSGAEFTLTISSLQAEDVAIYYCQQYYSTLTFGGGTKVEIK
notes: also called cilgavimab; COV2-2130

Columns and labels:
[1] = target: T1, Purified SARS-CoV-2 BA.2 RBD protein (AcroBiosystem) (SARS-CoV-2, Omicron BA.2, strain); test: BLI; details: both partners purified
T1 construct: also called Omicron lineage RBD; source: bought: AcroBiosystem

[2] = target: T2, SARS-CoV-2 BA.1 RBD (residues 319–537, C-terminal AviTag and 8xHisTag) (SARS-CoV-2, Omicron BA.1 (B.1.1.529), strain); test: BLI; details: both partners purified
T2 construct: also called Omicron lineage RBD

[3] = target: T3, SARS-CoV-2 spike glycoprotein, Wuhan D614, Δ19 C-terminal truncation, on ExpiCHO-S cells (SARS-CoV-2 BetaCoV/Wuhan-Hu-1/2019 …, UniProt P0DTC2); test: flow cytometry on cells; details: one partner purified
T3 construct: also called Wuhan-D614 spike; Wuhan-1 D614

[4] = target: T4, SARS-CoV-2 spike glycoprotein, Omicron BA.1, Δ19 C-terminal truncation, on ExpiCHO-S cells (SARS-CoV-2, Omicron BA.1 (B.1.1.529), strain); test: flow cytometry on cells; details: one partner purified
T4 construct: also called BA.1 spike

[5] = target: T5, SARS-CoV-2 spike glycoprotein, Omicron BA.2, Δ19 C-terminal truncation, on ExpiCHO-S cells (SARS-CoV-2, Omicron BA.2, strain); test: flow cytometry on cells; details: one partner purified
T5 construct: also called BA.2 spike

| Binder | binding result [1] | binding result [2] | binding result [3] | binding result [4] | binding result [5] |
| --- | --- | --- | --- | --- | --- |
| B1 | binds | binds |  |  |  |
| B2 |  |  | binds | binds | binds |
| B3 | binds | binds |  |  |  |
